Data: patent US20240392004A1 (IMMUNOWAKE, published 2024)

Legend:
Test in all cases: cell-based or functional assay
[1] = molecular target: T1, human TIGIT on HEK-Blue reporter cells (human, UniProt Q495A1 22-244)
T1 sequence (looked up): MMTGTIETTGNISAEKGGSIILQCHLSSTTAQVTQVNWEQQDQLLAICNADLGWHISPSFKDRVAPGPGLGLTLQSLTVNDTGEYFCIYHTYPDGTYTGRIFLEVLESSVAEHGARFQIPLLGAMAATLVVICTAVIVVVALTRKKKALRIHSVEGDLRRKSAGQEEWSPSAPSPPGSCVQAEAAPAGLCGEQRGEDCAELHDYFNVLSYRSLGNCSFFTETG

[2] = molecular target: human IL-12 receptor complex (IL-12Rβ1 and IL-12Rβ2) (human, UniProt P42701 24-662; Q99665 24-862)
Sequence of human IL-12 receptor complex (IL-12Rβ1 and IL-12Rβ2) (Q99665 24-862, chain 2 of 2, other chains not shown): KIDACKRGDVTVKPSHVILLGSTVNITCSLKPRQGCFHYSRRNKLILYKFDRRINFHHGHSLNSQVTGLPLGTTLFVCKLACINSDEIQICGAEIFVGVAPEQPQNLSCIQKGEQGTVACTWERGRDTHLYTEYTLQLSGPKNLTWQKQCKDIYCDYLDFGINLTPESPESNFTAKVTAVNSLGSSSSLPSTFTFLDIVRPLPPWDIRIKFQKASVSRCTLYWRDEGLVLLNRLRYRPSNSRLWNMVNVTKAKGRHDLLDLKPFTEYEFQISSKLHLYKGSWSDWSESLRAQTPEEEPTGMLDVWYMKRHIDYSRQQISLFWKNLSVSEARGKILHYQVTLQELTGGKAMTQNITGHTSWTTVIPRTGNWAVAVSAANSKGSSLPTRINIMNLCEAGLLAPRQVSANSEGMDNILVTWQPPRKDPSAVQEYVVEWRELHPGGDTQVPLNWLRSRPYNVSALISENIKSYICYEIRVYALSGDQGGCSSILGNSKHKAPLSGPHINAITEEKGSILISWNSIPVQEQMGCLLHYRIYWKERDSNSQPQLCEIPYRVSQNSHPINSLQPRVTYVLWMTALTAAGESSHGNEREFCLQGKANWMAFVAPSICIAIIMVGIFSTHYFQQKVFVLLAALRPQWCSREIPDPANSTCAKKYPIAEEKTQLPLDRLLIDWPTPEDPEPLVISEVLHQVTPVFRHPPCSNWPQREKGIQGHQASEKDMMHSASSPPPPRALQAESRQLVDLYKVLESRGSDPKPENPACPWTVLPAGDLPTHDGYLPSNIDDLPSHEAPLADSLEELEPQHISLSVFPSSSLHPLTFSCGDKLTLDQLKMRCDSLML

[3] = molecular target: T2, IFN-γ receptor (IFNGR1 and IFNGR2) (UniProt P15260 18-489; P38484 22-337, limits assumed)
T2 sequence (looked up) 1: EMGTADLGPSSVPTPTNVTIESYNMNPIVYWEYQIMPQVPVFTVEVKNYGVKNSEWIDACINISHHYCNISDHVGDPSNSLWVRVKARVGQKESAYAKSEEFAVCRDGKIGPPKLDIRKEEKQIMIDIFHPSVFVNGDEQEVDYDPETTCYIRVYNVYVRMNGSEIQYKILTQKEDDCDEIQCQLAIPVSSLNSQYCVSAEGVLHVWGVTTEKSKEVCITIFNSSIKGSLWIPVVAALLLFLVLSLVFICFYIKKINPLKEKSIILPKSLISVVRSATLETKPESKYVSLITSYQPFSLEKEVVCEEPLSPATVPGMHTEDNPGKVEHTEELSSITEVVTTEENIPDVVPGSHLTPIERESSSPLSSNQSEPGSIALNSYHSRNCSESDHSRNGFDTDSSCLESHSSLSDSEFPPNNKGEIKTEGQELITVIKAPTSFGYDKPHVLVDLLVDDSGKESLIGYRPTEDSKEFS
T2 sequence (looked up) 2: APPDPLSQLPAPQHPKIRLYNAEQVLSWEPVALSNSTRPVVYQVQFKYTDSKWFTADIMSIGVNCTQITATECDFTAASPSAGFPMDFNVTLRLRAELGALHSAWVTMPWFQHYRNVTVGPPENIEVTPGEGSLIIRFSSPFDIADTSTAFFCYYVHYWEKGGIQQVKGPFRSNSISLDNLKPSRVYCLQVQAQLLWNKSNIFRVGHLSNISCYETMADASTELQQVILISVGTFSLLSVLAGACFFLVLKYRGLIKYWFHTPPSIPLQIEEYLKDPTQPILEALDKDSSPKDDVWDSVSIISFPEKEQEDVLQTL

- IL-12 signal transduction, HEK-IL-12-TIGIT [1]: 40%
- IL-12 signal transduction, HEK-IL-12 [2]: < 0.2%
- IFN-γ signal transduction, HEK-IFN-γ [3]: < 0.2%
B1: IL-12(E59A/F60A)/IFN-γ(A23V/A23V)/CD155-Fc (Fc fusion)
chain 1: WPPPGTGDVVVQAPTQVPGFLGDSVTLPCYLQVPNMEVTHVSQLTWARHGESGSMAVFHQTQGPSYSESKRLEFVAARLGAELRNASLRMFGLRVEDEGNYTCLFVTFPQGSRSVDIWLRVLAKPQNTAEVQKVQLTGEPVPMARCVSTGGRPPAQITWHSDLGGMPNTSQVPGFLSGTVTVTSLWILVPSSQVDGKNVTCKVEHESFEKPQLLTVNLTVYYPPEVSISGYDNNWYLGQNEATLTCDARSNPEPTGYNWSTTMGPLPPFAVAQGAQLLIRPVDKPINTTLICNVTNALGARQAELTVQVKEGPPSEHSGISRNGGGGSGGGIWELKKDVYVVELDWYPDAPGEMVVLTCDTPEEDGITWTLDQSSEVLGSGKTLTIQVKAAGDAGQYTCHKGGEVLSHSLLLLHKKEDGIWSTDILKDQKEPKNKTFLRCEAKNYSGRFTCWWLTTISTDLTFSVKSSRGSSDPQGVTCGAATLSAERVRGDNKEYEYSVECQEDSACPAAEESLPIEVMVDAVHKLKYENYTSSFFIRDIIKPDPPKNLQLKPLKNSRQVEVSWEYPDTWSTPHSYFSLTFCVQVQGKSKREKKDRVFTDKTSATVICRKNASISVRAQDRYYSSSWSEWASVPCSGGGGSGGGSGGGGSRNLPVATPDPGMFPCLHHSQNLLRAVSNMLQKARQTLEFYPCTSEEIDHEDITKDKTSTVEACLPLELTKNESCLNSRETSFITNGSCLASRKTSFMMALCLSSIYEDLKMYQVEFKTMNAKLLMDPKRQIFLDQNMLAVIDELMQALNFNSETVPQKSSLEEPDFYKTKIKLCILLHAFRIRAVTIDRVMSYLNASGGGGSGGGDKTHTCPPCPAPEDEGGPSVFLFPPKPKDTLMISRTPEVTCVVVDVSHEDPEVKFNWYVDGVEVHNAKTKPREEQYNSTYRVVSVLTVLHQDWLNGKEYKCKVSNKALPAPIEKTISKAKGQPREPQVYVYPPSREEMTKNQVSLTCLVKGFYPSDIAVEWESNGQPENNYKTTPPVLDEDGSFALVSKLTVDKSRWQQGNVFSCSVMHEALHNHYTQKSLSLSPGK
chain 2: WPPPGTGDVVVQAPTQVPGFLGDSVTLPCYLQVPNMEVTHVSQLTWARHGESGSMAVFHQTQGPSYSESKRLEFVAARLGAELRNASLRMFGLRVEDEGNYTCLFVTFPQGSRSVDIWLRVLAKPQNTAEVQKVQLTGEPVPMARCVSTGGRPPAQITWHSDLGGMPNTSQVPGFLSGTVTVTSLWILVPSSQVDGKNVTCKVEHESFEKPQLLTVNLTVYYPPEVSISGYDNNWYLGQNEATLTCDARSNPEPTGYNWSTTMGPLPPFAVAQGAQLLIRPVDKPINTTLICNVTNALGARQAELTVQVKEGPPSEHSGISRNGGGSGQDPYVKEAENLKKYFNAGHSDVVDNGTLFLGILKNWKEESDRKIMQSQIVSFYFKLFKNFKDDQSIQKSVETIKEDMNVKFFNSNKKKRDDFEKLTNYSVTDLNVQRKAIHELIQVMAELSPAAKTGKRKRSQMLFRGGGGSGGGGSGGGGSGGGGSQDPYVKEAENLKKYFNAGHSDVVDNGTLFLGILKNWKEESDRKIMQSQIVSFYFKLFKNFKDDQSIQKSVETIKEDMNVKFFNSNKKKRDDFEKLTNYSVTDLNVQRKAIHELIQVMAELSPAAKTGKRKRSQMLFRGGGGGSGGGDKTHTCPPCPAPEKKGGPSVFLFPPKPKDTLMISRTPEVTCVVVDVSHEDPEVKFNWYVDGVEVHNAKTKPREEQYNSTYRVVSVLTVLHQDWLNGKEYKCKVSNKALPAPIEKTISKAKGQPREPQVYVLPPSREEMTKNQVSLLCLVKGFYPSDIAVEWESNGQPENRYMTWPPVLDSDGSFFLYSKLTVDKSRWQQGNVFSCSVMHEALHNHYTQKSLSLSPGK
